PMC11761524 (bioRxiv, 2025)

Experiments:
[1] = molecular target: strep-Cyclin F (1–546)-GST-Skp1 (1–163) (human) (UniProt P41002); test: fluorescence polarisation
GST-Cyclin A (173–432) = GST-Cyclin A (173–432) (UniProt P20248); test: fluorescence polarisation
CP110 = test: Coimmunoprecipitation of Flag-Cyclin F with endogenous CP110 in HEK293T cells; type: cell-based; details: anti-Flag IP, Western blot, vs WT Cyclin F
CDC6 = test: Coimmunoprecipitation of Flag-Cyclin F with endogenous CDC6 in HEK293T cells; type: cell-based; details: anti-Flag IP, Western blot, vs WT Cyclin F

Chain of UniProt P20248 (P20248 173-432): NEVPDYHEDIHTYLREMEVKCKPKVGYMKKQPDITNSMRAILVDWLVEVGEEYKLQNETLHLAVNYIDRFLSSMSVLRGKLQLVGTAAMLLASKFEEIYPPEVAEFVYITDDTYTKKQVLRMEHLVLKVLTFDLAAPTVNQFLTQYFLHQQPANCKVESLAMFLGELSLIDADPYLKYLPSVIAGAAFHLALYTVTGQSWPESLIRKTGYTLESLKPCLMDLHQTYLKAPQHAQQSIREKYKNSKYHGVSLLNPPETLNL

Row | Molecule | fold decrease in affinity against the wild-type E2F1 peptide [1] [fold] | fold decrease in affinity against the wild-type E2F1 peptide (GST-Cyclin A (173–432)) [fold] | association with CP110 (coimmunoprecipitation) (CP110) | association with CDC6 (coimmunoprecipitation) (CDC6)
1 | E2F1 peptide D93R (unlabeled) (from UniProt Q01094 84-99) | 3 | 3 |  | 
2 | E2F1 peptide R91E (unlabeled) (from UniProt Q01094 84-99) | 41 | 12 |  | 
3 | E2F1 peptide V88E (unlabeled) (from UniProt Q01094 84-99) | 31 | 460 |  | 
4 | E2F1 peptide K89E (unlabeled) (from UniProt Q01094 84-99) | 24 | 48 |  | 
5 | Cyclin F loop mutant: Flag-Cyclin F mutant containing D504-T511 all changed to alanine (protein, left off: Flag, end not stated, kept) MGSGGVVHCRCAKCFCYPTKRRIRRRPRNLTILSLPEDVLFHILKWLSVEDILAVRAVHSQLKDLVDNHASVWACASFQELWPSPGNLKLFERAAEKGNFEAAVKLGIAYLYNEGLSVSDEARAEVNGLKASRFFSLAERLNVGAAPFIWLFIRPPWSVSGSCCKAVVHESLRAECQLQRTHKASILHCLGRVLSLFEDEEKQQQAHDLFEEAAHQGCLTSSYLLWESDRRTDVSDPGRCLHSFRKLRDYAAKGCWEAQLSLAKACANANQLGLEVRASSEIVCQLFQASQAVSKQQVFSVQKGLNDTMRYILIDWLVEVATMKDFTSLCLHLTVECVDRYLRRRLVPRYRLQLLGIACMVICTRFISKEILTIREAVWLTDNTYKYEDLVRMMGEIVSALEGKIRVPTVVDYKEVLLTLVPVELRTQHLCSFLCELSLLHTSLSAYAPARLAAAALLLARLTHGQTQPWTTQLWDLTGFSYEDLIPCVLSLHKKCFHDDAPKAAAAAAAAAVKQRFEDKRYGEISQEEVLSYSQLCAALGVTQDSPDPPTFLSTGEIHAFLSSPSGRRTKRKRENSLQEDRGSFVTTPTAELSSQEETLLGSFLDWSLDCCSGYEGDQESEGEKEGDVTAPSGILDVTVVYLNPEQHCCQESSDEEACPEDKGPQDPQALALDTQIPATPGPKPLVRTSREPGKDVTTSGYSSVSTASPTSSVDGGLGALPQPTSVLSLDSDSHTQPCHHQARKSCLQCRPPSPPESSVPQQQVKRINLCIHSEEEDMNLGLVRL |  |  | weaker association was more apparent | weaker association was more apparent
